Source: paper PMC4102767

Target: Slx4-S486A^3Flag (budding yeast), Q12098
Assay: affinity purification with mass spectrometry
Conditions: remark: other sources report otherwise

Slx4-S486A^3Flag (budding yeast), Q12098, sequence (Q12098 whole entry S486A): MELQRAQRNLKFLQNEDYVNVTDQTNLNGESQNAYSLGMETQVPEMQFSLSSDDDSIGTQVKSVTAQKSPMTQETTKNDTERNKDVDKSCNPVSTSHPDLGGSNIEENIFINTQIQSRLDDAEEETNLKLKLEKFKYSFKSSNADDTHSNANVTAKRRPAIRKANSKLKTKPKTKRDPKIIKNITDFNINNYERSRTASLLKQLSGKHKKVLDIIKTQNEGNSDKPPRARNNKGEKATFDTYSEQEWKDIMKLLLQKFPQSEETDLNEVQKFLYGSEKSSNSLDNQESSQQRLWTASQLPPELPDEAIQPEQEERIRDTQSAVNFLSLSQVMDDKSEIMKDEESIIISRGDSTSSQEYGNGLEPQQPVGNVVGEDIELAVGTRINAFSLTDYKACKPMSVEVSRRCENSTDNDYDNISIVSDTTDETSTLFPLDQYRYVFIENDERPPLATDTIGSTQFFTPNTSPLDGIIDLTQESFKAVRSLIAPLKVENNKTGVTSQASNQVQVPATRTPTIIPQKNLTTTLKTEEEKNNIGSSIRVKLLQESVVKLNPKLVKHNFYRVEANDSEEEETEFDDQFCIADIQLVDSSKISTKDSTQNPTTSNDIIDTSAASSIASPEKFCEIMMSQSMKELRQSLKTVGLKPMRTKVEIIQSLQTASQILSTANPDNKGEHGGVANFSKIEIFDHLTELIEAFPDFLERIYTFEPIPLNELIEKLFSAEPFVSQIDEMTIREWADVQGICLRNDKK

- fold reduction of binding against wild-type Slx4^3Flag: 8 fold
B1: Dpb11, endogenous, P47027 1-764 (natural protein)
chain: MKPFQGITFCPTAINNEILAKKISKKIIKLGGIFSKDLTRQVNVLVVGSTTNTNKFKFAVKHRFDIIFIDIQAIDDIYQLWLSGENILPDSNTATMTGSTYEMLKILYRRFSFKYLHNFNIFIGRITDTNITSIDSLVRSIKKLGCSSYNYQNFVIKDTSSHNDDDDQGQNGQISIFVTDTLLGARVNAAIEQNIPIVHFKWILDCQKRSALLPYDPYYLLPNIKDLPYDSIGSNSCDCWDKINTTFPTNIDAQSSLQRQQSSSTLTPSLPKTSSLLNKFKPKGEKIWDKAMSLQQHSKTNFSVLGQSPLSINNKQEDLSDNSTLIFKNCAFIIHHIFPGNHRSILTKIVVQNGGKIETSYLSGIYDHSYYIIPSNKALDSFNDLPEIIDDNDGIVTEFFIERCLYYQKLLHPIDLWSKPFLSTIEFQVSSSSKLLHHEFSSSPFLNVTITGFSGVELLHLTKVLNLLKPMGINYVEYLNKSTDILLINLAALPSIPKTHPLWSNEFSDLFTQFCINNNNDDPGDNNRKDFQNNSILRNSMKRKIEYIKKFHSIPVVTPAFIFKLLSAASGENNEIFLNNIKWCIICPRGHKDDFKCKIKKPYYTSISSEKKYQNNDPKIDKTILLKRNNSSLSEHSMKDTKNELLQKIRETDSGRKKRSVSSSIMDVSSERQMPDTKRIKLESLPKNFVPKQIKRTTSWGTIMSENVPTEQPTAISNPEEIPRTEEVSHTQVTYGSIQDKKRTASLEKPMRRQTRNQTKELDS
